Laboratory results published in the supplement of paper PMC7125110.
± gives the standard error. For some of these results: Variants at the floor of the assay were thinned out.

B1: glmS ribozyme (parent)
chain: AUAAAAGCGCCAGAACUACAGAAAUGUAGUUGACGAGGAGGAGGUUUAUCGAAUUUUCGGCGGAUGCCUCCAAA

What was measured:
Conditions in all cases: with glucosamine-6-phosphate
glucosamine-6-phosphate [1] = variants of: B1; test: kcat; higher = faster cleavage; RNA array
Summary of the method: (§1)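 On sequenced MiSeq chips, barcoded ribozyme variants were made in situ by E. coli RNA polymerase and followed at 37 °C through a hybridised Cy3 probe. Glucosamine-6-phosphate was flowed in at 40 μM to 10 mM in HEPES/KCl/Mg(OAc)2 buffer. Exponential fits to normalised per-tile medians gave kobs, and weighted Michaelis–Menten fits gave kcat and KM.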

glucosamine-6-phosphate [2] = variants of: B1; test: self-cleavage kobs at 160 uM GlcN6P; higher = faster cleavage; RNA array
Summary of the method: as §1

glucosamine-6-phosphate [3] = variants of: B1; test: KM; higher = weaker cofactor use; RNA array
Summary of the method: as §1

glucosamine-6-phosphate [4] = variants of: B1; test: self-cleavage kobs at 640 uM GlcN6P; higher = faster cleavage; RNA array
Summary of the method: as §1

glucosamine-6-phosphate [5] = variants of: B1; test: self-cleavage kobs at 2500 uM GlcN6P; higher = faster cleavage; RNA array
Summary of the method: as §1

glucosamine-6-phosphate [6] = variants of: B1; test: self-cleavage kobs at 10000 uM GlcN6P; higher = faster cleavage; RNA array
Summary of the method: as §1

glucosamine-6-phosphate [7] = variants of: B1; test: self-cleavage kobs at 40 uM GlcN6P; higher = faster cleavage; RNA array
Summary of the method: as §1

AUAAAAACGCCAGAACUACAGAAAUGUAGUUGACGAGGAGGAGGUUUAUCGAAUUUUCGGCGGAUGCCCCCAAA [G7A U69C]
kcat (glucosamine-6-phosphate [1]): < 1e-05 s⁻¹ | self-cleavage kobs at 160 uM GlcN6P (glucosamine-6-phosphate [2]): < 1e-05 s⁻¹

AUAAAAGCGGCAGGACUACAGAAAUGUAGUUCACGAAGAGGAGGUUUAUCGAAUUUUCGGCGGAUGGCUCCAAA [C10G A14G G32C G37A C67G]
kcat (glucosamine-6-phosphate [1]): 2.2e-05 ± 6.4e-06 s⁻¹

AUAAAAGCGCCAGAACUACAGAAAUGUAGUUGACGAGGAGGAGGGUUAUCGGAUUUUCGGCGGAUGCCUCCAAA [U45G A52G]
kcat (glucosamine-6-phosphate [1]): 0.000403 ± 0.0001 s⁻¹ | KM (glucosamine-6-phosphate [3]): 3100 ± 1400 µM | self-cleavage kobs at 640 uM GlcN6P (glucosamine-6-phosphate [4]): 8.01e-05 ± 1.6e-05 s⁻¹ | self-cleavage kobs at 2500 uM GlcN6P (glucosamine-6-phosphate [5]): 0.000142 ± 3.2e-05 s⁻¹ | self-cleavage kobs at 10000 uM GlcN6P (glucosamine-6-phosphate [6]): 0.000345 ± 6e-05 s⁻¹

AUAAAAGCGCCAGAACUACAGAAAUGUAGUUCACGAGGAGGAGGAUUAUCGAAUUUUCGGCGGAUGCCUCCAAA [G32C U45A]
kcat (glucosamine-6-phosphate [1]): 0.000238 ± 2.8e-05 s⁻¹ | KM (glucosamine-6-phosphate [3]): 3690 ± 1000 µM | self-cleavage kobs at 640 uM GlcN6P (glucosamine-6-phosphate [4]): 2.9e-05 ± 1.3e-05 s⁻¹ | self-cleavage kobs at 2500 uM GlcN6P (glucosamine-6-phosphate [5]): 0.000113 ± 2.7e-05 s⁻¹ | self-cleavage kobs at 10000 uM GlcN6P (glucosamine-6-phosphate [6]): 0.000171 ± 2.3e-05 s⁻¹

AUAAAAGCGCCAGAACUACAGAAAUGUAGUUAACGAGGAAGAGGUUUAUCGAAUUUUCGGCGGAUGCCUCCAAA [G32A G40A]
kcat (glucosamine-6-phosphate [1]): 0.000781 ± 2.4e-05 s⁻¹ | KM (glucosamine-6-phosphate [3]): 2220 ± 130 µM | self-cleavage kobs at 160 uM GlcN6P (glucosamine-6-phosphate [2]): 5.38e-05 ± 1.8e-05 s⁻¹ | self-cleavage kobs at 640 uM GlcN6P (glucosamine-6-phosphate [4]): 0.000175 ± 3.4e-05 s⁻¹ | self-cleavage kobs at 2500 uM GlcN6P (glucosamine-6-phosphate [5]): 0.000414 ± 6.4e-05 s⁻¹ | self-cleavage kobs at 10000 uM GlcN6P (glucosamine-6-phosphate [6]): 0.000639 ± 8.9e-05 s⁻¹

AUAAAAGCGCCAGAACUACAGAAAUGUAGUUGACGUGGAGGAGGUUUAUCGAAUUUUCGGCGGGUGCCUCCAAA [A36U A64G]
kcat (glucosamine-6-phosphate [1]): 1.98e-05 ± 2e-06 s⁻¹ | self-cleavage kobs at 10000 uM GlcN6P (glucosamine-6-phosphate [6]): 1.85e-05 ± 5.8e-06 s⁻¹

AUAAAAGCGCCAGAACUACAGAAAUGUAGUUGACGACGAGGAGGUUUAUCGAAUUUUCGGCGGAUGUCUCCAAA [G37C C67U]
kcat (glucosamine-6-phosphate [1]): 2.86e-05 ± 3.3e-06 s⁻¹ | self-cleavage kobs at 2500 uM GlcN6P (glucosamine-6-phosphate [5]): 2.85e-05 ± 1e-05 s⁻¹

AUAAAAGCGCCAGAACUACAGAAAUGUAGUUGACGUGGAGGAGGUUUAUCGAAUUUUCGGCGGAUGCGUCCAAA [A36U C68G]
kcat (glucosamine-6-phosphate [1]): 0.000198 ± 5.7e-05 s⁻¹ | self-cleavage kobs at 40 uM GlcN6P (glucosamine-6-phosphate [7]): 7.38e-05 ± 1.2e-05 s⁻¹ | self-cleavage kobs at 640 uM GlcN6P (glucosamine-6-phosphate [4]): 0.000275 ± 3.5e-05 s⁻¹ | self-cleavage kobs at 10000 uM GlcN6P (glucosamine-6-phosphate [6]): 0.000121 ± 3.4e-05 s⁻¹

AUAAAAGCGACAGAACUACAGAAAUGUAGUUGACGAGGAGGAGGUUUAUCGAAUUUUCGUCGGAUGCCUCCAAA [C10A G60U]
kcat (glucosamine-6-phosphate [1]): 0.000974 ± 0.00015 s⁻¹ | KM (glucosamine-6-phosphate [3]): 1660 ± 470 µM | self-cleavage kobs at 40 uM GlcN6P (glucosamine-6-phosphate [7]): 3.82e-05 ± 7.9e-06 s⁻¹ | self-cleavage kobs at 160 uM GlcN6P (glucosamine-6-phosphate [2]): 8.97e-05 ± 1.6e-05 s⁻¹ | self-cleavage kobs at 640 uM GlcN6P (glucosamine-6-phosphate [4]): 0.000243 ± 3.1e-05 s⁻¹ | self-cleavage kobs at 2500 uM GlcN6P (glucosamine-6-phosphate [5]): 0.000514 ± 8.6e-05 s⁻¹ | self-cleavage kobs at 10000 uM GlcN6P (glucosamine-6-phosphate [6]): 0.000886 ± 8.3e-05 s⁻¹
